Experimental data from patent US6946256.

Target: T1, TAp63γ (UniProt Q9H3D4)
T1 sequence: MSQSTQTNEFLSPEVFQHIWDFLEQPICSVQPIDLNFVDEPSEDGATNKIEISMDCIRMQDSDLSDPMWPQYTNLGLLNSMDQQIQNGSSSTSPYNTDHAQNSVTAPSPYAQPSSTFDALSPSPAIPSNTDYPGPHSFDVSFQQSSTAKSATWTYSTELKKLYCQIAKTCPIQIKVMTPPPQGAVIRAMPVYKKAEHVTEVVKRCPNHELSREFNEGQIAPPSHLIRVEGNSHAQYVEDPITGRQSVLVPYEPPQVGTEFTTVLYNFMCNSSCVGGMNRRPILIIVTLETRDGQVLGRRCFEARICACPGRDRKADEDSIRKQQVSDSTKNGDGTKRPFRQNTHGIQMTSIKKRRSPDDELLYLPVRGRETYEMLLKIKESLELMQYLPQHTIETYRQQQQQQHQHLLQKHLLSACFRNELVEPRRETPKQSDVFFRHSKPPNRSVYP
Test: cell_activity
Settings: Saos-2 reporter, levels approaching 80% of p53

**Q.** With “PG-13 β-galactosidase reporter (multiple copies of minimal p53 binding sequence)” as the substance, how does the activity read?
**A.** Its activity is 80 % of p53.
